In patent US20260266848A1, “COMPOSITIONS AND METHODS FOR DIAGNOSING AND TREATING DYSTONIA” (Duke University, priority 2023, published 2026):

B1: Apex1 (protein, UniProt P28352 2-317, looked up)
DNA repair nuclease/redox …: PKRGKKAAADDGEEPKSEPETKKSKGAAKKTEKEAAGEGPVLYEDPPDQKTSPSGKSATLKICSWNVDGLRAWIKKKGLDWVKEEAPDILCLQETKCSENKLPAELQELPGLTHQYWSAPSDKEGYSGVGLLSRQCPLKVSYGIGEEEHDQEGRVIVAEFESFVLVTAYVPNAGRGLVRLEYRQRWDEAFRKFLKDLASRKPLVLCGDLNVAHEEIDLRNPKGNKKNAGFTPQERQGFGELLQAVPLADSFRHLYPNTAYAYTFWTYMMNARSKNVGWRLDYFLLSHSLLPALCDSKIRSKALGSDHCPITLYLAL
B2: Plaa (protein, UniProt P27612 1-794, looked up)
Phospholipase A-2-activating …: MASGASRYRLSCSLPGHELDVRGLVCCLYPPGAFVSVSRDRTTRLWAPDSPNRGFTEMHCMSGHSNFVSCVCIIPSSDIYPHGLIATGGNDHNICIFSLDSPMPLYILKGHKDTVCSLSSGKFGTLLSGSWDTTAKVWLNDKCMMTLQGHTAAVWAVKILPEQGLMLTGSADKTIKLWKAGRCERTFLGHEDCVRGLAILSETEFLSCANDASIRRWQITGECLEVYFGHTNYIYSISVFPNSKDFVTTAEDRSLRIWKHGECAQTIRLPAQSIWCCCVLENGDIVVGASDGIIRVFTESEERTASAEEIKAFERELSQATIDSKTGDLGDINAEQLPGREHLSEPGTREGQTRLIRDGERVEAYQWSVSDGRWIKIGDVVGSSGANQQTSGKVLYEGKEFDYVFSIDVNEGGPSYKLPYNVSDDPWLVAYNFLQKNDLNPMFLDQVAKFIIDNTKGQTLGLGNTSFSDPFTGGGRYVPGTSGPSNTVQTADPFTGAGRYMPGSAGMDTTMTGVDPFTGNSAYRSAASKTVNIYFPKKEALTFDQANPTQILGKLKELNGTAPEEKKLTEDDLVLLEKILSLICNNSSEKPTAQQLQILWKAINWPEDIVFPALDILRLSIKHPNVNENFCNEKGDQFSSHLINLLNPKGKPANQLLALRTFCNCFVSQAGQKLMMSQRESLMSHAIELKSGSNKNIHIALATLTLNYSVCFHKDHNIEGKAQCLSVISTILEVVQDLEATFRLLVALGTLISDDSNAIQLAKSLGVDSQIKKYVSVSEPAKVSECCRLVLHLL
B3: Lipg (protein, UniProt Q9WVG5 21-500, looked up)
Endothelial lipase: SITTLRPQGSLRDEHHKPTGVPATARPSVAFNIRTSKDPEQEGCNLSLGDSKLLENCGFNMTAKTFFIIHGWTMSGMFESWLHKLVSALQMREKDANVVVVDWLPLAHQLYTDAVNNTRVVGQRVAGMLDWLQEKEEFSLGNVHLIGYSLGAHVAGYAGNFVKGTVGRITGLDPAGPMFEGVDINRRLSPDDADFVDVLHTYTLSFGLSIGIRMPVGHIDIYPNGGDFQPGCGFNDVIGSFAYGTISEMVKCEHERAVHLFVDSLVNQDKPSFAFQCTDSSRFKRGICLSCRKNRCNNIGYNAKKMRKKRNSKMYLKTRAGMPFKVYHYQLKVHMFSYNNSGDTQPTLYITLYGSNADSQNLPLEIVEKIELNATNTFLVYTEEDLGDLLKMRLTWEGVAHSWYNLWNEFRNYLSQPSNPSRELYIRRIRVKSGETQRKVTFCTQDPTKSSISPGQELWFHKCQDGWKMKNKTSPFVNLA
B4: Shmt2 (protein, UniProt Q9CZN7 30-504, looked up)
Serine …: KVAQTQAGEAAGGWTGQESLSDSDPEMWELLQREKDRQCRGLELIASENFCSRAALEALGSCLNNKYSEGYPGKRYYGGAEVVDEIELLCQRRALEAFDLDPAQWGVNVQPYSGSPANLAAYTALLQPHDRIMGLDLPDGGHLTHGYMSDVKRISATSIFFESMPYKLNPQTGLIDYDQLALTARLFRPRLIIAGTSAYARLIDYARMREVCDEVRAHLLADMAHISGLVAAKVIPSPFKYADVVTTTTHKTLRGARSGLIFYRKGVRTVDPKTGKEIPYTFEDRINFAVFPSLQGGPHNHAIAAVAVALKQACTPMFREYSLQVLRNAQAMADALLKRGYSLVSGGTDTHLVLVDLRPKGLDGARAERVLELVSITANKNTCPGDRSAITPGGLRLGAPALTSRQFREDDFRRVVDFIDEGVNIGLEVKRKTAKLQDFKSFLLKDPETSQRLANLRQQVEQFARGFPMPGFDER
B5: Dars (protein, UniProt Q922B2 1-501, looked up)
Aspartate--tRNA ligase, …: MPSTNASRKGQEKPREIVDAAEDYAKERYGISSMIQSQEKPDRVLVRVKDLTVQKADDVVWVRARVHTSRAKGKQCFLVLRQQQFNVQALVAVGDHASKQMVKFAANINKESIIDVEGVVRKVNQKIGSCTQQDVELHVQKIYVISLAEPRLPLQLDDAIRPEVEGEEDGRATVNQDTRLDNRVIDLRTSTSQAIFRLQSGICHLFRETLINKGFVEIQTPKIISAASEGGANVFTVSYFKNNAYLAQSPQLYKQMCICADFEKVFCIGPVFRAEDSNTHRHLTEFVGLDIEMAFNYHYHEVVEEIADTLVQIFKGLQERFQTEIQTVSKQFPCEPFKFLEPTLRLEYCEALAMLREAGVEMDDEEDLSTPNEKLLGRLVKEKYDTDFYVLDKYPLAVRPFYTMPDPRNPKQSNSYDMFMRGEEILSGAQRIHDPQLLTERALHHGIDLEKIKAYIDSFRFGAPPHAGGGIGLERVTMLFLGLHNVRQTSMFPRDPKRLTP
B6: Ssbp1 (protein, UniProt Q9CYR0 17-152, looked up)
Single-stranded DNA-binding …: ESEVASSLVLERSLNRVQLLGRVGQDPVMRQVEGKNPVTIFSLATNEMWRSGDSEVYQMGDVSQKTTWHRISVFRPGLRDVAYQYVKKGARIFVEGKVDYGEYMDKNNVRRQATTIIAGKKLVVHSVSGCSLEGLA
B7: Ephx1 (protein, UniProt Q9D379 1-455, looked up)
Epoxide hydrolase 1: MWLELILASVLGFVIYWFVSRDKEETLPLEDGWWGPGSKPSAKEDESIRPFKVETSDEEIKDLHQRIDRFRASPPLEGSRFHYGFNSSYLKKVVSFWRNEFDWRKQVEILNQYPHFKTKIEGLDIHFIHVKPPQLPSGRTPKPLLMVHGWPGSFYEFYKIIPLLTDPKTHGLSDEHVFEVICPSIPGYGFSEASSKKGLNSVATARIFYKLMSRLGFQKFYIQGGDWGSLICTNIAQMVPNHVKGLHLNMSFISRNIYSLTPLLGQRFGRFLGYTEKDLELLYPFKEKVFYNIMRESGYLHIQATKPDTVGCALNDSPVGLAAYILEKFSTWTKSEYRELEDGGLERKFSLEDLLTNIMIYWTTGTIVSSQRFYKENLGQGVMVHRHEGMKVFVPTGYSAFPSEILHAPEKWVKVKYPKLISYSYMERGGHFAAFEEPKLLAQDIRKFVSLAELQ
B8: Hnrnpf (protein, UniProt Q9Z2X1 1-415, looked up)
Heterogeneous nuclear …: MMLGPEGGEGYVVKLRGLPWSCSIEDVQNFLSDCTIHDGVAGVHFIYTREGRQSGEAFVELESEDDVKLALKKDRESMGHRYIEVFKSHRTEMDWVLKHSGPNSADSANDGFVRLRGLPFGCTKEEIVQFFSGLEIVPNGITLPVDPEGKITGEAFVQFASQELAEKALGKHKERIGHRYIEVFKSSQEEVRSYSDPPLKFMSVQRPGPYDRPGTARRYIGIVKQAGLDRMRSGAYSAGYGGYEEYSGLSDGYGFTTDLFGRDLSYCLSGMYDHRYGDSEFTVQSTTGHCVHMRGLPYKATENDIYNFFSPLNPVRVHIEIGPDGRVTGEADVEFATHEEAVAAMSKDRANMQHRYIELFLNSTTGASNGAYSSQVMQGMGVSAAQATYSGLESQSVSGCYGAGYSGQNSMGGYD

Assays:
DYT-TOR1A MEF EVs = experiment: Quantitative LC-MS/MS proteomics of EVs from drug-treated DYT-TOR1A MEF cultures (ritonavir, salubrinal); type: cell-based, mouse; set-up: key to RTV Corrective Direction / RTV Corrective Direction, Grwd1 / RTV Corrective Direction, Srrm2 / RTV Corrective Direction, Rbm17 / RTV Corrective Direction, Dcaf8 / RTV Corrective Direction, Edil3 / RTV Corrective Direction, Timp3 / RTV Corrective Direction, Heatr3 / RTV Corrective Direction, Brd4 / RTV Corrective Direction, P3h4 / RTV Corrective Direction, Pacsin3 / RTV Corrective Direction, Naa50 / RTV Corrective Direction, Lpar6 / RTV Corrective Direction, Ndrg1 / RTV Corrective Direction, Kntc1 / RTV Corrective Direction, Cdk11b / RTV Corrective Direction, Sumo1 / RTV Corrective Direction, Lsm4 / RTV Corrective Direction, Hmga2 / RTV Corrective Direction, Cstf1 / RTV Corrective Direction, Tes / RTV Corrective Direction, Sbno1 / RTV Corrective Direction, Unc119b / RTV Corrective Direction, Cfdp1 / RTV Corrective Direction, Sec61b: YES = protein abundance effect opposite to DYT/WT; conditions: EV protein abundance; for RTV Corrective Direction: DYT + RTV (ritonavir) vs DYT, direction compared with DYT/WT; for DYT + RTV/DYT Cohen's d: ritonavir (RTV)-treated DYT vs DYT
WT MEF EVs = experiment: Quantitative LC-MS/MS proteomics of EVs from ISRIB-treated WT MEF cultures; type: cell-based, mouse; set-up: key to ISRIB and DYT Parallel Direction / ISRIB and DYT Parallel Direction, Ctdsp1 / ISRIB and DYT Parallel Direction, Pcdh19 / ISRIB and DYT Parallel Direction, Tspan7 / ISRIB and DYT Parallel Direction, Myo1e / ISRIB and DYT Parallel Direction, Plpp3 / ISRIB and DYT Parallel Direction, Sh3bp4 / ISRIB and DYT Parallel Direction, Dnajc7 / ISRIB and DYT Parallel Direction, Drg1 / ISRIB and DYT Parallel Direction, Maea: YES = protein abundance effect similar to DYT/WT; conditions: EV protein abundance; for WT + ISRIB/WT Cohen's d: ISRIB-treated WT vs WT; for ISRIB and DYT Parallel Direction: WT + ISRIB vs WT, direction compared with DYT/WT

Molecule	RTV Corrective Direction (DYT-TOR1A MEF EVs)	DYT + RTV/DYT Cohen's d (DYT-TOR1A MEF EVs)	WT + ISRIB/WT Cohen's d (WT MEF EVs)	ISRIB and DYT Parallel Direction (WT MEF EVs)
B1	YES	8.06	−0.67	YES
B2	YES	8.69	−2.39	YES
B3	YES	2.88	−2.47	YES
B4	YES	8.98	−1.44	YES
B5	YES	9.32	−1.13	YES
B6	YES	3.30	−1.49	YES
B7	YES	1.48	−0.32	YES
B8	YES	8.04	−0.18	YES
